# In patent US20070286806A1, “Methods and Compositions for Modulating a Steroid Receptor” (Mount Sinai Hospital, priority 2004, published 2007):
# T1: activation domains of PR (Homo sapiens, UniProt P06401)
# T1 construct: expressed in transfected cells; host or cells: SHM (Syrian hamster myocyte) cells
# T1 sequence (P06401 456-650): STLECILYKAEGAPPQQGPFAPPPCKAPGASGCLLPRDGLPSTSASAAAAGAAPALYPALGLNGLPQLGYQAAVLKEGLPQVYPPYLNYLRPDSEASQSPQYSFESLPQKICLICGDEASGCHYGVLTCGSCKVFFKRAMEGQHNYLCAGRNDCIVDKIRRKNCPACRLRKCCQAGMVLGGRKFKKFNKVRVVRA
# T2: PRA (Homo sapiens, UniProt P06401)
# T2 construct: expressed in transfected cells; host or cells: SHM (Syrian hamster myocyte) cells
# T2 sequence (P06401 1-769 isoform P06401-2): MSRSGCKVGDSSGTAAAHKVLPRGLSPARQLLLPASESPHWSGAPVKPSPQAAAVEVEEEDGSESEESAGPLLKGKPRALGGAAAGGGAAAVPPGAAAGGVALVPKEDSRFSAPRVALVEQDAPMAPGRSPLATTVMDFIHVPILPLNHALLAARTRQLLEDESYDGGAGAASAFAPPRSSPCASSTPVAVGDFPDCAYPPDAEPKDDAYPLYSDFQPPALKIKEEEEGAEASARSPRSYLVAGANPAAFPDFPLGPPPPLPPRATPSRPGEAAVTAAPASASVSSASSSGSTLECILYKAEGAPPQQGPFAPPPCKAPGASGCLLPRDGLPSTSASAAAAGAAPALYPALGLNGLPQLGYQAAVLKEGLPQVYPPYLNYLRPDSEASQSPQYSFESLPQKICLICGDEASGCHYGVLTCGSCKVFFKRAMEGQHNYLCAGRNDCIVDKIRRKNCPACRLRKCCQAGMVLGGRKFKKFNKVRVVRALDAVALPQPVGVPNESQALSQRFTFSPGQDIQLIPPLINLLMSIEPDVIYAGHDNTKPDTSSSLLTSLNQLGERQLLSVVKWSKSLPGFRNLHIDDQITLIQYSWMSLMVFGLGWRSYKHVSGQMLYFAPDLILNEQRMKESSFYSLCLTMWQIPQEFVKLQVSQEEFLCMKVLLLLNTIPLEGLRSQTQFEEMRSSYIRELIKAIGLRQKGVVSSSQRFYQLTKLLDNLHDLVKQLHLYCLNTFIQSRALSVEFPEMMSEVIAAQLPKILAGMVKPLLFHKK
# B1: polypyrimidine tract binding protein-associated splicing factor (protein)
# chain: MSRDRFRSRGGGGGGFHRRGGGGGRGGLHDFRSPPPGMGLNQNRGPMGPGPGQSGPKPPIPPPPPHQQQQQPPPQQPPPQQPPPHQPPPHPQPHQQQQPPPPPQDSSKPVVAQGPGPAPGVGSAPPASSSAPPATPPTSGAPPGSGPGPTPTPPPAVTSAPPGAPPPTPPSSGVPTTPPQAGGPPPPPAAVPGPGPGPKQGPGPGGPKGGKMPGGPKPGGGPGLSTPGGHPKPPHRGGGEPRGGRQHHPPYHQQHHQGPPPGGPGGRSEEKISDSEGFKANLSLLRRPGEKTYTQRCRLFVGNLPADITEDEFKRLFAKYGEPGEVFINKGKGFGFIKLESRALAEIAKAELDDTPMRGRQLRVRFATHAAALSVRNLSPYVSNELLEEAFSQFGPIERAVVIVDDRGRSTGKGIVEFASKPAARKAFERCSEGVFLLTTTPRPVIVEPLEQLDDEDGLPEKLAQKNPMYQKERETPPRFAQHGTFEYEYSQRWKSLDEMEKQQREQVEKNMKDAKDKLESEMEDAYHEHQANLLRQDLMRRQEELRRMEELHNQEMQKRKEMQLRQEEERRRREEEMMIRQREMEEQMRRQREESYSRMGYMDPRERDMRMGGGGAMNMGDPYGSGGQKFPPLGGGGGIGYEANPGVPPATMSGSMMGSDMRTERFGQGGAGPVGGQGPRGMGPGTPAGYGRGREEYEGPNKKPRF
# notes: expressed from transfected His-PSF vector or in vitro translated
# Legend:
# Format in all cases: cell-based
# activation domains of PR = target: T1, activation domains of PR; test: One-hybrid system: PR activation domains fused to Gal4 DBD, G5-Luc reporter and western blot in SHM cells
# Experimental: FIG. 6 A-F. Inhibition of PR activation domains by PSF involves different mechanisms. Segments containing individual activation domains of PR were fused to Gal4 DNA binding domain in pM vector and cotransfected with or without increasing amounts of His-PSF, together with G5 luciferase reporter vector in SHM cells. Progesterone (10 nM) was added to cells transfected with segments containing PR hormone binding domain (HBD). Luciferase activity was measured 30 hours after transfection and normalized to β-galatosidase acitvity. Data shown are the mean of three separate experiments performed in triplicate±S.E. Whole cell lysate from each transfection was western blotted with anti-Gal4 DNA binding domain (DBD) antibody (Santa Cruz) and anti-His tag antibody H-15 (Santa Cruz). Note: the empty vector pSG5 was added to the DNA mixture to ensure that the amounts of SV40 promoter in all the transfection assays are equal.
# For immunoprecipitation of the endogenous PR and PSF, T47D cells cultured in 150 mm dishes were lysed in 800 μl NETN buffer containing 150 mM NaCl plus protease inhibitor cocktail. Cell lysate were then incubated with 5 μg of PR or PSF, or control mouse IgG at 4° C. overnight, followed by the addition of 30 μl of protein A/G PLUS-agarose beads (Santa Cruz) for another two hours at 4° C. Resins were washed with NETN containing 250 mM NaCl and eluted with 1×Laemmli buffer. The eluted proteins along with the whole cell extract were western blotted by PR or PSF antibody. • GST pulldown assay: GST pulldown assay was performed as previously described (20). GST and its fusion proteins were first immobilized to glutathione-Sepharose 4B affinity matrix. The matrix was then incubated at 4° C. overnight with rabbit reticulocyte lysate (Promega) containing PR or His-PSF transcribed and translated in presence of ^35S methionine. The matrix was washed three times with cold NETN buffer before adding 1 ×Laemmli buffer to elute associated proteins. The eluted proteins were separated on 10% SDS-PAGE gel. Gels were treated with Enhancer (NEN, Boston, US) dried and analyzed by autoradiography. • Cell culture and transient transfection: SHM cells and 293T cells were maintained in DMEM plus 5% FCS (Sigma) as described before (22). For experiments involving steroid exposure, the medium was substituted with phenol red free DMEM containing 5% charcoal-treated fetal bovine serum (Hyclone, Utah, USA). Transfection was performed according to manufacturers protocol (Fementas). Cells were seeded at a density to achieve 60-80% confluency the following day. The DNA and transfection reagent were mixed and added to the medium. Cell lysates were collected at least 30 hours after transfection. For luciferase assay, cells were collected in 200 μl of lysis buffer (Promega) of which 10μl was used for the luciferase and β-Gal activity assays respectively. Luciferase activity was determined by using the luciferin reagent (Promega) according to manufacture's protocol. Transfection efficiency was normalized to β-galactosidase activity. For western blots, cell lysates were collected in NETN buffer plus protease inhibitor cocktail. About 30 μg of protein extract was separated on SDS gel electrophoresis followed by western blotting with antibodies of interest. • Electrophoretic Mobility Shift Assay: PRDBD was synthesized in rabbit reticulocyte by using the TNT coupled in vitro transcription-translation system (Promega) with the vector pcDNA3 PRDBD. Full-length PR protein extract was obtained by transiently transfecting 293T cells with Flag-PRB vector. Cells were treated with 10^−8 M progesterone and nuclear fraction was extracted by the NE-PER Nuclear and Cytoplasmic Extraction Reagents Kit (Pierce). The nuclear fraction containing PRs was confirmed by western blot with the PR antibody AB-52 and used in gel shift assay. […]
# ERβ = target: T3, ERβ (Homo sapiens, UniProt Q92731); test: ERβ transactivation, 3xERE luciferase reporter in SHM cells; conditions: 3xERE promoter
# T3 construct: expressed in transfected cells; host or cells: SHM (Syrian hamster myocyte) cells
# Experimental: (§1) FIG. 4. PSF inhibit transactivation of PR but not estrogen receptor (ER). (A) SHM cells were transient cotransfected with PRA or PRB expression vectors with or without increasing dose (0.05, 0.1 and 0.2 μg) of His-PSF, together with 3×PRE (upper) or MMTV (lower) luciferase reporter vector. Four hours after transfection, culture medium was replaced with fresh DMEM containing 10 nM progesterone and the incubation continued for at least 30 hours. (B) SHM cells were transiently cotransfected with ERα or ERβ expression vector with (0.2 μg) or without His-PSF, together with 3×ERE luciferase reporter vector. Four hours after transfection, culture medium was replaced with fresh DMEM with (solid bar) or without (empty bar) 10 nM estrodial and incubation continued for at least 30 hours. Luciferase activity was measured and normalized by β-galatosidase activity. […]
# (§2) For immunoprecipitation of the endogenous PR and PSF, T47D cells cultured in 150 mm dishes were lysed in 800 μl NETN buffer containing 150 mM NaCl plus protease inhibitor cocktail. […] Gels were treated with Enhancer (NEN, Boston, US) dried and analyzed by autoradiography. • Cell culture and transient transfection: SHM cells and 293T cells were maintained in DMEM plus 5% FCS (Sigma) as described before (22). […] Luciferase activity was determined by using the luciferin reagent (Promega) according to manufacture's protocol. […]
# PRA = target: T2, PRA; test: Transactivation of progesterone responsive promoters (3xPRE-Luc, MMTV-Luc) by PRA in SHM cells; conditions: 10 nM progesterone, increasing dose of His-PSF vector
# Experimental: as §1, §2
# T3 sequence (Q92731 whole entry, species assumed): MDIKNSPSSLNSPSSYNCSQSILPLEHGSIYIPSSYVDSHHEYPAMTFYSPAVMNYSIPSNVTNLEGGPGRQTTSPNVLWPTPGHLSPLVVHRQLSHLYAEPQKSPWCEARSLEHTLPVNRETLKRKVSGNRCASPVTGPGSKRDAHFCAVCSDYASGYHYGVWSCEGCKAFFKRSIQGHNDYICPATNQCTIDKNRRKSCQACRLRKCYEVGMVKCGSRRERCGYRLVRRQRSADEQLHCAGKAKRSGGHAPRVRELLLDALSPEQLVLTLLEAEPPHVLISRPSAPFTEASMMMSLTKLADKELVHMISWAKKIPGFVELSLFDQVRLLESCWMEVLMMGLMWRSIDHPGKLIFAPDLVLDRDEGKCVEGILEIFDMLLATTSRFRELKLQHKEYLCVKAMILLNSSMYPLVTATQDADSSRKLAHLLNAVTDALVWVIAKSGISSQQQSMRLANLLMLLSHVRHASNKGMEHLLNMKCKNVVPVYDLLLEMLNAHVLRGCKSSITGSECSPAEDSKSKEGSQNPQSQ
molecule,measurement,setting,value
B1,transactivation of PR456-650,activation domains of PR; PR456-650 (AF1 domain and DBD),inhibited transactivation
same,protein of PR456-650,"activation domains of PR; PR456-650, western blot",enhanced degradation
same,inhibitory effects on ERβ,ERβ,not observed
same,PRA transactivation of MMTV and 3xPRE promoters,PRA,potently inhibited
